Assay results from US20260242478A1 (published 2026).

B1: Phage-1609 (peptide)
peptide: TCAAGAAYTWPVCF
B2: Phage-1616 (peptide)
peptide: TCAAGVPYKWPPCL
B3: Phage-1633 (peptide-92 library clone, SEQ ID NO: 1929) (peptide)
peptide: TCSAGATYSWPYCL
notes: Tested as clonal phage supernatant
B4: Phage-1623 (peptide)
peptide: SCSAGATYQWPYCF
B5: Phage-1620 (peptide)
peptide: LCAAGAYYPWPLCF
B6: Phage-1603 (peptide)
peptide: TCSAGALWEWPMCF
B7: Phage-1640 (peptide-92 library clone, SEQ ID NO: 1936) (peptide)
peptide: LCSAGAMYPWPVCL
notes: as for B3
B8: Phage-1645 (peptide-92 library clone, SEQ ID NO: 1941) (peptide)
peptide: SCADGFNYVWPLCF
notes: as for B3
B9: Phage-1626 (peptide)
peptide: RCAAGAMWTWPACF
B10: Phage-1607 (peptide)
peptide: SCAAGAHYPWPECL
B11: Phage-1606 (peptide)
peptide: TCSAGAHYSWPKCF
B12: Phage-1617 (peptide)
peptide: SCAAGATYTWPFCL
B13: Phage-1601 (peptide)
peptide: TCSAGAAWTWPLCF
B14: Phage-1642 (peptide-92 library clone, SEQ ID NO: 1938) (peptide)
peptide: SCSAVFSYRWPKCL
notes: as for B3
B15: Phage-1619 (peptide)
peptide: TCSAGATYKWPACF
B16: Phage-1638 (peptide-92 library clone, SEQ ID NO: 1934) (peptide)
peptide: PCSDGVAYPWPYCV
notes: as for B3
B17: Phage-1618 (peptide)
peptide: RCAAVFSYTWPPCL
B18: Phage-1624 (peptide)
peptide: SCAAGATYSWPACL
B19: Phage-1636 (peptide-92 library clone, SEQ ID NO: 1932) (peptide)
peptide: TCAAGANWPWPECL
notes: as for B3
B20: Phage-1622 (peptide)
peptide: NCSAGATWPWPMCF
B21: Phage-1641 (peptide-92 library clone, SEQ ID NO: 1937) (peptide)
peptide: SCSAGATWAWPQCF
notes: as for B3
B22: Phage-1634 (peptide-92 library clone, SEQ ID NO: 1930) (peptide)
peptide: TCSAGATYSWPSCF
notes: as for B3
B23: Phage-1639 (peptide-92 library clone, SEQ ID NO: 1935) (peptide)
peptide: SCAAGAHWSWPVCF
notes: as for B3
B24: Phage-1644 (peptide-92 library clone, SEQ ID NO: 1940) (peptide)
peptide: SCAAGFDYGWPMCL
notes: as for B3
B25: Phage-1621 (peptide)
peptide: TCTAGFSYKWPTCL
B26: Phage-1632 (peptide)
peptide: TCSAGASWGWPWCL
B27: Phage-1646 (peptide-92 library clone, SEQ ID NO: 1942) (peptide)
peptide: TCAAGANYSWPACL
notes: as for B3
B28: Phage-1635 (peptide-92 library clone, SEQ ID NO: 1931) (peptide)
peptide: LCAAGATYPWPDCV
notes: as for B3
B29: Phage-1614 (peptide)
peptide: LCAAGAAWEWPMCF
B30: Phage-1643 (peptide-92 library clone, SEQ ID NO: 1939) (peptide)
peptide: SCSAGAGWAWPMCF
notes: as for B3
B31: Phage-1610 (peptide)
peptide: SCAAGAMWEWPKCF
B32: Phage-1615 (peptide)
peptide: QCSAGATYAWPFCL
B33: Phage-1612 (peptide)
peptide: TCAAGATYEWPSCL
B34: Phage-1613 (peptide)
peptide: SCSAGAMYTWPTCL
B35: Phage-1630 (peptide)
peptide: TCAAGAVWTWPICF
B36: Phage-1625 (peptide)
peptide: NCAAGAMYSWPTCL
B37: Phage-1629 (peptide)
peptide: TCAAGATWLWPWCL
B38: Phage-1604 (peptide)
peptide: PCAAGAHYTWPTCL
B39: Phage-1611 (peptide)
peptide: SCADGAIWEWPWCF
B40: Phage-1637 (peptide-92 library clone, SEQ ID NO: 1933) (peptide)
peptide: LCEEFFHYSWPLCL
notes: as for B3
B41: Phage-1605 (peptide)
peptide: SCSAGATYTWPACL
B42: Phage-1608 (peptide)
peptide: SCAEVFNYVWPFCF
B43: Phage-1631 (peptide)
peptide: TCADGAFWQWPVCL
B44: Phage-1627 (peptide)
peptide: TCAAGATYMWPVCL
B45: Phage-1628 (peptide)
peptide: SCAAGATWKWPECL
B46: Phage-1602 (peptide)
peptide: TCSAGAAYEWPECF

Key:
[1] = target: T1, Anti-CD28 Fab (SEQ ID NOs: 696, 697); assay: phage ELISA; biotinylated anti-CD28 Fab on neutravidin plate, bound phage detected with anti-M13-HRP
T1 construct: In the phage ELISA the Fab was biotinylated and captured on neutravidin coated plates
T1 sequence (VH, as listed by the source, chain 1 of 2): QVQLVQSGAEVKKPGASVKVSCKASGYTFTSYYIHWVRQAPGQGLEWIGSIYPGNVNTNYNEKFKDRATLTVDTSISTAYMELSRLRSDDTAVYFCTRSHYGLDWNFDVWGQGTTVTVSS
T1 sequence (VL, as listed by the source, chain 2 of 2): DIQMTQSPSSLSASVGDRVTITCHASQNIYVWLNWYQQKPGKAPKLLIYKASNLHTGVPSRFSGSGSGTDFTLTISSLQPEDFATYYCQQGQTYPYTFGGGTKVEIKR
Method: (§1) Clonal phage were harvested as crude supematants and screened via standard ELISAs. […] Prior to the addition of clonal phage, wells were incubated with blocking buffer and CD28 antigen or blocking buffer alone. Without washing or aspirating, clonal phage supematants were then added to the wells and incubated for a short time. Wells were then washed followed by detection of bound phage using a horse radish conjugated anti-M13 antibody.

[2] = target: T1, Anti-CD28 Fab (SEQ ID NOs: 696, 697); assay: phage ELISA on captured anti-CD28 Fab; wells pre-incubated with CD28 antigen as competitor;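 further: clonal phage from crude supernatants added to wells pretreated with blocking buffer with or without CD28, bound phage read by ELISA with HRP-conjugated anti-M13 antibody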
Method: (§2) Clonal phage were harvested as crude supematants and screened via standard ELISAs. […] Prior to the addition of clonal phage, wells were incubated with blocking buffer and CD28 antigen or blocking buffer alone. Without washing or aspirating, clonal phage supematants were then added to the wells and incubated for a short time. Wells were then washed followed by detection of bound phage using a horse radish conjugated anti-M13 antibody. Clonal phage of interest were then sent for sequence analysis.

[3] = target: Anti-CD28 Fab (SEQ ID NOs: 696, 697); assay: phage binding ELISA on captured anti-CD28 Fab, wells pre-incubated with CD28 antigen as competitor
Target sequence in this assay (VH, as listed by the source, chain 1 of 2): as the sequence (VH, as listed by the source, chain 1 of 2) above
Target sequence in this assay (VL, as listed by the source, chain 2 of 2): as the sequence (VL, as listed by the source, chain 2 of 2) above
Method: as §2

[4] = target: Anti-CD28 Fab (SEQ ID NOs: 696, 697); assay: phage binding ELISA; biotinylated anti-CD28 Fab on neutravidin plate, clonal phage, anti-M13 HRP detection
Target sequence in this assay (VH, as listed by the source, chain 1 of 2): as the sequence (VH, as listed by the source, chain 1 of 2) above
Target sequence in this assay (VL, as listed by the source, chain 2 of 2): as the sequence (VL, as listed by the source, chain 2 of 2) above
Method: as §2

[5] = target: T2, Anti-CD28 Fab (SEQ ID NOs: 696, 697); assay: phage ELISA on captured anti-CD28 Fab; wells pre-incubated with CD28 antigen as competitor; remark: listed apart in the source;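 further: clonal phage from crude supernatants added to wells pretreated with blocking buffer with or without CD28, bound phage read by ELISA with HRP-conjugated anti-M13 antibody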
T2 construct: In the phage ELISA the Fab was biotinylated and captured on neutravidin coated plates
T2 sequence (VH, as listed by the source, chain 1 of 2): as the sequence (VH, as listed by the source, chain 1 of 2) above
T2 sequence (VL, as listed by the source, chain 2 of 2): as the sequence (VL, as listed by the source, chain 2 of 2) above
Method: as §2

[6] = target: T2, Anti-CD28 Fab (SEQ ID NOs: 696, 697); assay: phage ELISA; biotinylated anti-CD28 Fab captured on neutravidin plate, clonal phage detected with HRP anti-M13 antibody
Method: as §1

[7] = target: Anti-CD28 Fab (SEQ ID NOs: 696, 697); assay: phage binding ELISA; biotinylated Fab on neutravidin plate, bound phage detected with anti-M13-HRP
Target sequence in this assay (VH, as listed by the source, chain 1 of 2): as the sequence (VH, as listed by the source, chain 1 of 2) above
Target sequence in this assay (VL, as listed by the source, chain 2 of 2): as the sequence (VL, as listed by the source, chain 2 of 2) above
Method: as §1

[8] = target: Anti-CD28 Fab (SEQ ID NOs: 696, 697); assay: phage binding ELISA; Fab-coated wells pre-incubated with CD28 antigen as competitor;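 further: clonal phage supernatants added to wells preincubated with CD28 antigen or blocking buffer only, bound phage detected with HRP-conjugated anti-M13 antibody, buffer-only wells as control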
Target sequence in this assay (VH, as listed by the source, chain 1 of 2): as the sequence (VH, as listed by the source, chain 1 of 2) above
Target sequence in this assay (VL, as listed by the source, chain 2 of 2): as the sequence (VL, as listed by the source, chain 2 of 2) above
Method: as §1

Row | Binder | Phage binding ELISA, Anti-CD28 Fab signal [1] | Phage binding ELISA, Anti-CD28 Fab signal in the presence of CD28 [2] | Anti-CD28 Fab signal in the presence of CD28 (phage binding ELISA) [3] | Anti-CD28 Fab signal (phage binding ELISA) [4] | Phage binding ELISA, Anti-CD28 Fab signal in the presence of CD28 [5] | Phage binding ELISA, Anti-CD28 Fab signal [6] | further results
1 | B1 | 1.32 | 0.08 | – | – | – | – | –
2 | B2 | 1.29 | 0.06 | – | – | – | – | –
3 | B3 | – | – | 0.07 | 1.22 | – | – | –
4 | B4 | – | – | – | – | 0.06 | 1.26 | –
5 | B5 | – | – | – | – | 0.06 | 1.28 | –
6 | B6 | – | – | – | – | – | – | Anti-CD28 Fab signal [7]: 1.35; Anti-CD28 Fab signal in the presence of CD28 [8]: 0.06
7 | B7 | – | – | 0.08 | 1.19 | – | – | –
8 | B8 | – | – | 0.08 | 1.14 | – | – | –
9 | B9 | – | – | – | – | 0.06 | 1.25 | –
10 | B10 | 1.32 | 0.05 | – | – | – | – | –
11 | B11 | 1.33 | 0.07 | – | – | – | – | –
12 | B12 | 1.29 | 0.07 | – | – | – | – | –
13 | B13 | – | – | – | – | – | – | Anti-CD28 Fab signal [7]: 1.36; Anti-CD28 Fab signal in the presence of CD28 [8]: 0.06
14 | B14 | – | – | 0.06 | 1.18 | – | – | –
15 | B15 | – | – | – | – | 0.05 | 1.29 | –
16 | B16 | – | – | 0.06 | 1.2 | – | – | –
17 | B17 | 1.29 | 0.07 | – | – | – | – | –
18 | B18 | – | – | – | – | 0.07 | 1.25 | –
19 | B19 | – | – | 0.08 | 1.21 | – | – | –
20 | B20 | – | – | – | – | 0.06 | 1.27 | –
21 | B21 | – | – | 0.08 | 1.19 | – | – | –
22 | B22 | – | – | 0.09 | 1.21 | – | – | –
23 | B23 | – | – | 0.08 | 1.2 | – | – | –

Row | Binder | Phage binding ELISA, Anti-CD28 Fab signal [1] | Phage binding ELISA, Anti-CD28 Fab signal in the presence of CD28 [2] | Anti-CD28 Fab signal in the presence of CD28 (phage binding ELISA) [3] | Anti-CD28 Fab signal (phage binding ELISA) [4] | Phage binding ELISA, Anti-CD28 Fab signal in the presence of CD28 [5] | Phage binding ELISA, Anti-CD28 Fab signal [6] | further results
24 | B24 | – | – | 0.06 | 1.16 | – | – | –
25 | B25 | – | – | – | – | 0.09 | 1.28 | –
26 | B26 | – | – | – | – | 0.07 | 1.22 | –
27 | B27 | – | – | 0.08 | 1.14 | – | – | –
28 | B28 | – | – | 0.05 | 1.21 | – | – | –
29 | B29 | 1.3 | 0.06 | – | – | – | – | –
30 | B30 | – | – | 0.08 | 1.16 | – | – | –
31 | B31 | 1.32 | 0.09 | – | – | – | – | –
32 | B32 | 1.29 | 0.08 | – | – | – | – | –
33 | B33 | 1.32 | 0.09 | – | – | – | – | –
34 | B34 | 1.31 | 0.08 | – | – | – | – | –
35 | B35 | – | – | – | – | 0.05 | 1.23 | –
36 | B36 | – | – | – | – | 0.07 | 1.25 | –
37 | B37 | – | – | – | – | 0.07 | 1.23 | –
38 | B38 | – | – | – | – | – | – | Anti-CD28 Fab signal [7]: 1.34; Anti-CD28 Fab signal in the presence of CD28 [8]: 0.07
39 | B39 | 1.32 | 0.07 | – | – | – | – | –
40 | B40 | – | – | 0.06 | 1.21 | – | – | –
41 | B41 | 1.34 | 0.07 | – | – | – | – | –
42 | B42 | 1.32 | 0.07 | – | – | – | – | –
43 | B43 | – | – | – | – | 0.07 | 1.22 | –
44 | B44 | – | – | – | – | 0.07 | 1.24 | –
45 | B45 | – | – | – | – | 0.07 | 1.24 | –
46 | B46 | – | – | – | – | – | – | Anti-CD28 Fab signal [7]: 1.36; Anti-CD28 Fab signal in the presence of CD28 [8]: 0.06
